From paper PMC5255556, “mTORC1 phosphorylates LARP6 to stimulate type I collagen expression” (Scientific Reports, 2017)
Changes are numbered by the printed parent chain.

How the values were obtained:
[1] = molecular target: T1, wt HA-LARP6 (La ribonucleoprotein domain family, member 6), full length (UniProt Q9BRS8 1-491); assay: co-IP; HLFs transduced with HA-LARP6 adenovirus; lysate in 50 mM Tris-HCl pH 7.5, 150 mM NaCl, 0.5% NP-40, 1 mM DTT; IP with anti-HA antibody 3 h at 4 °C, protein A/G-agarose, blot with anti-STRAP; cells untreated, treated with rapamycin, or with raptor knockdown (shRNA); conditions: partners not purified
T1 construct: LARP6 (La ribonucleoprotein domain family, member 6), full-length, re-cloned from pcDNA3 into pAd-CMV-Track; In cells the protein is a mixture of phosphorylated isoforms; The construct is described in earlier work of the authors; also called wt LARP6; FL HA-LARP6; source: HLFs (human lung fibroblasts), adenovirus-transduced, in lysate or in lysed microsomal fraction
T1 sequence (looked up): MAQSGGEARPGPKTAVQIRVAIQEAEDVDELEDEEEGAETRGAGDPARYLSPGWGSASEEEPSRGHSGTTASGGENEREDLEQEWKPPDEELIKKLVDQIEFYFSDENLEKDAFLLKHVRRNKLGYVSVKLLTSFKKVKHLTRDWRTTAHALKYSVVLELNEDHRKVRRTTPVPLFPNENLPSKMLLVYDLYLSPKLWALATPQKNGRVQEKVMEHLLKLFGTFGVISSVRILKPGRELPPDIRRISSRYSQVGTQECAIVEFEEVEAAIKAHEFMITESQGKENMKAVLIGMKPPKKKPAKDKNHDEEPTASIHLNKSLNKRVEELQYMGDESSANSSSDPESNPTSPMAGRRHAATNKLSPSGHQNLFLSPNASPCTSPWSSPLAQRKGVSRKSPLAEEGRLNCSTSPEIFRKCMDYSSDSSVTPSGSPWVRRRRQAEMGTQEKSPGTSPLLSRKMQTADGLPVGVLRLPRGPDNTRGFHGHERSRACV

[2] = molecular target: T2, HA-LARP6 S348A/S409A mutant, full length (UniProt Q9BRS8 1-491, S348A | S409A); assay: as above; conditions: partners not purified
T2 construct: LARP6 (La ribonucleoprotein domain family, member 6), full-length, with S348A and S409A; Made by QuickChange site-directed mutagenesis; expressed from adenovirus; source: HLFs (human lung fibroblasts), adenovirus-transduced, in lysate or in lysed microsomal fraction
T2 sequence (looked up): T1 sequence (looked up) with S348A, S409A

- fraction of STRAP pulled down after rapamycin relative to untreated cells [1]: ~0.33 fraction of untreated
- STRAP pulled down relative to wt HA-LARP6 [2]: ~50 % less than wt HA-LARP6
B1: serine-threonine kinase receptor-associated protein (STRAP) (natural protein, human (endogenous in HLFs), UniProt Q9Y3F4 1-350, looked up)
chain: MAMRQTPLTCSGHTRPVVDLAFSGITPYGYFLISACKDGKPMLRQGDTGDWIGTFLGHKGAVWGATLNKDATKAATAAADFTAKVWDAVSGDELMTLAHKHIVKTVDFTQDSNYLLTGGQDKLLRIYDLNKPEAEPKEISGHTSGIKKALWCSEDKQILSADDKTVRLWDHATMTEVKSLNFNMSVSSMEYIPEGEILVITYGRSIAFHSAVSLDPIKSFEAPATINSASLHPEKEFLVAGGEDFKLYKYDYNSGEELESYKGHFGPIHCVRFSPDGELYASGSEDGTLRLWQTVVGKTYGLWKCVLPEEDSGELAKPKIGFPETTEEELEEIASENSDCIFPSAPDVKA
notes: STRAP, serine-threonine kinase receptor-associated protein, endogenous in human lung fibroblasts, detected with anti-STRAP antibody; source: endogenous, HLF lysate
